The target of the experiment is T1, cytosolic domain of SEC12 (PREB), his-tagged (UniProt Q9HCU5 1-388).
T1 sequence (looked up): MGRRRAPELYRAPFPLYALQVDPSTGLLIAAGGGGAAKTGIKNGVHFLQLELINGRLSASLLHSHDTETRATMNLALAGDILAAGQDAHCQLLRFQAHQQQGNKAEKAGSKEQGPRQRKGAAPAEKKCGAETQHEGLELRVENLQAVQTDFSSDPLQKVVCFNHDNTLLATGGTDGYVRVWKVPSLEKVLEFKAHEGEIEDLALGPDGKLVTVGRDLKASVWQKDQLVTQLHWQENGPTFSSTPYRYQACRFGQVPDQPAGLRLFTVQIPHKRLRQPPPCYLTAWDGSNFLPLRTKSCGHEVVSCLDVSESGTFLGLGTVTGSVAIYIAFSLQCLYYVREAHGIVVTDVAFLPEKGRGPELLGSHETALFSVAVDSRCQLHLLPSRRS
In words: liposome flotation.

The results in this text go back to PMC6589570 (Molecular Biology of the Cell, 2019).

B1: fatty-acid binding protein 5 (FABP5), rat (natural protein, UniProt P55053 1-135, looked up)
chain: MASLKDLEGKWRLVESHGFEDYMKELGVGLALRKMGAMAKPDCIITLDGNNLTVKTESTVKTTVFSCTLGEKFDETTADGRKTETVCTFTDGALVQHQKWEGKESTITRKLKDGKMVVECVMNNAICTRVYEKVQ
With B1, the “fold recruitment to liposomes with SEC12 against without SEC12” value was about 3.5 fold.
